# Test results taken from paper PMC5203670, “Biosynthesis of selenate reductase in Salmonella enterica: critical roles for the signal peptide and DmsD” (Microbiology, 2016).
# Where two headings read alike, the source gives them in different places.
# B1: Recombinant S. enterica DmsD, purified, hexa-histidine tag removed (natural protein, Salmonella enterica serovar Typhimurium, UniProt Q8ZPK0 1-204, looked up)
# chain: MTTFLQRDDFAVTARVLGALFYYSPESHETAPLVQALLNDDWQAQWPLDAEALAPVAAMFKTHSEESLPQAWQRLFIGPYALPSPPWGSVWLDRESVLFGDSTLALRQWMRENGIQFEMQQNEPEDHFGSLLLLAAWLAENDRHHECEQLLAWHLFPWSSRFLDVFIDHAGHPFYQALGQLARLTLAQWQAQLIIPVAVKPLFR
# notes: DmsD of S. enterica serovar Typhimurium, 204 residues; The forward primer encodes ENLYFQG before the first methionine; also called purified DmsD; pQE-His-TEV-DmsDst; not shown: His6, N-terminal, cleaved
# How the values were obtained:
# [1] = target: YnfE signal peptide (Salmonella enterica); conditions: cited from earlier work
# [2] = target: T25-DmsD fusion protein (S. enterica DmsD attached to the C-terminus of T25) (Salmonella enterica serovar Typhimurium) (UniProt Q8ZPK0); assay: two-hybrid; bacterial adenylate cyclase two-hybrid (spYnfE-T18 and T25-DmsD) in E. coli MAE01 (ΔcyaA); cultures at 30 °C, β-galactosidase activity in Miller units, shown relative to the native pair
# [3] = target: T25-DmsD fusion protein (S. enterica DmsD attached to the C-terminus of T25) (Salmonella enterica serovar Typhimurium) (UniProt Q8ZPK0); assay: as above; remark: listed apart in the source
# [4] = target: the molecule itself; assay: cross-linking; 1 % (v/v) formaldehyde, purified DmsD (2 µM) with or without synthetic peptide 2 (100 µM), 30 min, 50 mM HEPES pH 7.6, 150 mM KCl; SDS-PAGE and anti-DmsD immunoblot
# Chain of YnfE signal peptide (Salmonella enterica) (P77374 1-43): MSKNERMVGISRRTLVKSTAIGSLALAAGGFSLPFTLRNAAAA
molecule,measurement,setting,value
DmsD (from UniProt Q8ZPK0),Kd,[1],0.045 µM
spYnfE-T18 fusion (42-residue YnfE Tat signal peptide at the N-terminus of T18) (domain or fragment),"β-galactosidase activity (positive control, 100 %)",[2],1650 Miller units
same,"β-galactosidase activity (positive control, 100 %)",[3],1720 Miller units
B1,stoichiometry N,[4],2
